{"source": "IntAct's records for PubMed 21803990", "parents": {"B1": {"name": "ATP-dependent protease ATPase subunit HslU (Escherichia coli (strain K12)), P0A6H5 (parent)", "chain": "MSEMTPREIVSELDKHIIGQDNAKRSVAIALRNRWRRMQLNEELRHEVTPKNILMIGPTGVGKTEIARRLAKLANAPFIKVEATKFTEVGYVGKEVDSIIRDLTDAAVKMVRVQAIEKNRYRAEELAEERILDVLIPPAKNNWGQTEQQQEPSAARQAFRKKLREGQLDDKEIEIDLAAAPMGVEIMAPPGMEEMTSQLQSMFQNLGGQKQKARKLKIKDAMKLLIEEEAAKLVNPEELKQDAIDAVEQHGIVFIDEIDKICKRGESSGPDVSREGVQRDLLPLVEGCTVSTKHGMVKTDHILFIASGAFQIAKPSDLIPELQGRLPIRVELQALTTSDFERILTEPNASITVQYKALMATEGVNIEFTDSGIKRIAEAAWQVNESTENIGARRLHTVLERLMEEISYDASDLSGQNITIDADYVSKHLDALVADEDLSRFIL", "partner": "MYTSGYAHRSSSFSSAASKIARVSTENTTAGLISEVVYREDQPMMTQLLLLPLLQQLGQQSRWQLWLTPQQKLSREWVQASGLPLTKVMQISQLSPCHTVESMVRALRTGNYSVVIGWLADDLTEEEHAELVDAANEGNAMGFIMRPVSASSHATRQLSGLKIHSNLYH"}}}
{"variants_of": "B1", "conditions": "with sula_ecoli sulA"}
{"variant": "E266Q", "effect of a mutation on the interaction": "increasing interaction"}
{"variant": "Y408A", "effect of a mutation on the interaction": "increasing interaction"}
{"variant": "Y91F", "effect of a mutation on the interaction": "increasing interaction"}
{"variants_of": "B1", "conditions": "with sula_ecoli sulA", "remark": "another data set of the same source"}
{"variant": "G90D", "effect of a mutation on the interaction": "increasing interaction"}
